B1: OR4K15 (parent)
chain: GUUAACGGUCAUAGGCCAUGGAAACUAGGAGCACCAUUUCGCUGCCAGUGAAGAAAUGAACAAAGAAAAUCUGGGCCAGGCAGGCAUCAAAAGAAAUAGUCUUGCGCUCAACCAGAAAGUCUGUAAUCAUUUUAAGGGUA

Variants of B1 are the subject of the data set. Nature of the data set: self-cleavage, relative activity (ratio to wild type); higher = more cleavage; in vitro, sequencing; the parent is a self-cleaving ribozyme.
For GUUAACGGUCAUAGGCCAUGGAAACUAGGAGCACCAUUUCGCUGCCAGUGAAGAAAUGAACAAAGAAAAUCUGGGCCAGGCAGGCGUCAAAAGAAAUAGUCUUGCGCUCAUCCAGAAAGUCUGUAAUCAUUUUAAGGGUA [A86G A111U], the self-cleavage amounted to 0.11.

In the case of GUUAACGGUCAUAGGCCAUGGAAACUAGGAGCACCAUUUCGCUGCCAGUGAAGAAAUGAACAAAGAAAAUCUGGGCCAGGCAGGCGUCAAAAGAAAUAGUCUUGCGCUCAGCCAGAAAGUCUGUAAUCAUUUUAAGGGUA [A86G A111G], the self-cleavage is 0.02.

With GUUAACGGUCAUAGGCCAUGGAAACUAGGAGCACCAUUUCGCUGCCAGUGAAGAAAUGAACAAAGAAAAUCUGGGCCAGGCAGUCAUCAAAAGAAAUAGUCUUGCGCCCAACCAGAAAGUCUGUAAUCAUUUUAAGGGUA [G84U U108C], the self-cleavage stood at 0.02.

As to GUUAACGGUCAUAGGCCAUGGAAACUAGGAGCACCAUUUCGCUGCCAGUGAAGAAAUGAACAAAGAAAAUCUGGGCCAGGCAGGCGUCAAAAGAAAUAGUCUUGCGCUCAACCAGGAAGUCUGUAAUCAUUUUAAGGGUA [A86G A116G], the self-cleavage was determined as 0.79.

In the case of GUUAACGGUCAUAGGCCAUGGAAACUAGGAGCACCAUUUCGCUGCCAGUGAAGAAAUGAACAAAGAAAAUCUGGGCCAGGCAGUCAUCAAAAGAAAUAGUCUUGCGCUCAACCGGAAAGUCUGUAAUCAUUUUAAGGGUA [G84U A114G], the self-cleavage amounted to 0.45.

GUUAACGGUCAUAGGCCAUGGAAACUAGGAGCACCAUUUCGCUGCCAGUGAAGAAAUGAACAAAGAAAAUCUGGGCCAGGCAGGGAUCAAAAGAAGUAGUCUUGCGCUCAACCAGAAAGUCUGUAAUCAUUUUAAGGGUA [C85G A96G]: the self-cleavage is 1.02.

For the variant GUUAACGGUCAUAGGCCAUGGAAACUAGGAGCACCAUUUCGCUGCCAGUGAAGAAAUGAACAAAGAAAAUCUGGGCCAGGCAGGCGUCAAAAGAAAUAGUCUUGCGCUCGACCAGAAAGUCUGUAAUCAUUUUAAGGGUA [A86G A110G], the self-cleavage is 0.16.

For GUUAACGGUCAUAGGCCAUGGAAACUAGGAGCACCAUUUCGCUGCCAGUGAAGAAAUGAACAAAGAAAAUCUGGGCCAGGCAGGUAUCAAAAGAAAUAGUCUUGCGCUCAACCAGAAAGUCUGUAAUCAUUUUAAGGGUG [C85U A140G], the self-cleavage came to 1.26.

Regarding GUUAACGGUCAUAGGCCAUGGAAACUAGGAGCACCAUUUCGCUGCCAGUGAAGAAAUGAACAAAGAAAAUCUGGGCCAGGCAGGUAUCAAAAGAAAUAGUCUUGCGCUCAACCAGUAAGUCUGUAAUCAUUUUAAGGGUA [C85U A116U], the self-cleavage came to 0.17.

On to GUUAACGGUCAUAGGCCAUGGAAACUAGGAGCACCAUUUCGCUGCCAGUGAAGAAAUGAACAAAGAAAAUCUGGGCCAGGCAGGCCUCAAAAGAAAUAGUCUUGCGCUUAACCAGAAAGUCUGUAAUCAUUUUAAGGGUA [A86C C109U], for which the self-cleavage was determined as 0.25.

Consider GUUAACGGUCAUAGGCCAUGGAAACUAGGAGCACCAUUUCGCUGCCAGUGAAGAAAUGAACAAAGAAAAUCUGGGCCAGGCAGGCGUCAAAAGUAAUAGUCUUGCGCUCAACCAGAAAGUCUGUAAUCAUUUUAAGGGUA [A86G A94U], for which the self-cleavage stood at 2.2.

Consider GUUAACGGUCAUAGGCCAUGGAAACUAGGAGCACCAUUUCGCUGCCAGUGAAGAAAUGAACAAAGAAAAUCUGGGCCAGGCAGGAAUCAAAAGAAAUAGUCUUGCGCUCAACCAGAAAGUCUGUGAUCAUUUUAAGGGUA [C85A A125G], for which the self-cleavage was found to be 0.72.

As for GUUAACGGUCAUAGGCCAUGGAAACUAGGAGCACCAUUUCGCUGCCAGUGAAGAAAUGAACAAAGAAAAUCUGGGCCAGGCAGGCGUCCAAAGAAAUAGUCUUGCGCUCAACCAGAAAGUCUGUAAUCAUUUUAAGGGUA [A86G A89C], the self-cleavage came out at 0.67.

Regarding GUUAACGGUCAUAGGCCAUGGAAACUAGGAGCACCAUUUCGCUGCCAGUGAAGAAAUGAACAAAGAAAAUCUGGGCCAGGCAGGCGUCGAAAGAAAUAGUCUUGCGCUCAACCAGAAAGUCUGUAAUCAUUUUAAGGGUA [A86G A89G], the self-cleavage is 1.42.

As to GUUAACGGUCAUAGGCCAUGGAAACUAGGAGCACCAUUUCGCUGCCAGUGAAGAAAUGAACAAAGAAAAUCUGGGCCAGGCAGGUAUCAAAAGAAAUAGUCUUGCGCUCAACCAGAAAGUCCGUAAUCAUUUUAAGGGUA [C85U U122C], the self-cleavage came out at 0.9.

For GUUAACGGUCAUAGGCCAUGGAAACUAGGAGCACCAUUUCGCUGCCAGUGAAGAAAUGAACAAAGAAAAUCUGGGCCAGGCAGGUAUCAAAAGAAAUAGUCUUGCGCUCAACCAGAAAGUCUGUAAUCAUUUUAAGGGUA [C85U], the self-cleavage was found to be 1.15.

GUUAACGGUCAUAGGCCAUGGAAACUAGGAGCACCAUUUCGCUGCCAGUGAAGAAAUGAACAAAGAAAAUCUGGGCCAGGCAGGGAUCAAAAGAAAUAGUCUUGCGCUCAACCAGAAAGUCUGUAAUCAUUUUAAGGGUA [C85G]: the self-cleavage was 1.18.

GUUAACGGUCAUAGGCCAUGGAAACUAGGAGCACCAUUUCGCUGCCAGUGAAGAAAUGAACAAAGAAAAUCUGGGCCAGGCAGGAAUCAAAAGAAAUAGUCUUGCGCUCAACCAGAAAGUCUGUAAUCAUUUUAAGGGUA [C85A]: the self-cleavage turned out to be 1.18.

Regarding GUUAACGGUCAUAGGCCAUGGAAACUAGGAGCACCAUUUCGCUGCCAGUGAAGAAAUGAACAAAGAAAAUCUGGGCCAGGCAGGCGUCAAAAGAAAUAGUCUUGCGCUCAACCUGAAAGUCUGUAAUCAUUUUAAGGGUA [A86G A114U], the self-cleavage was found to be 0.03.

For the variant GUUAACGGUCAUAGGCCAUGGAAACUAGGAGCACCAUUUCGCUGCCAGUGAAGAAAUGAACAAAGAAAAUCUGGGCCAGGCAGGCGUCAAAAGAAAUAGUCUUGCGCUCAACCGGAAAGUCUGUAAUCAUUUUAAGGGUA [A86G A114G], the self-cleavage turned out to be 0.48.

On to GUUAACGGUCAUAGGCCAUGGAAACUAGGAGCACCAUUUCGCUGCCAGUGAAGAAAUGAACAAAGAAAAUCUGGGCCAGGCAGGCGUCAAAAGAAAUAGUCUUGCGCUCAACCCGAAAGUCUGUAAUCAUUUUAAGGGUA [A86G A114C], for which the self-cleavage is 0.06.

Consider GUUAACGGUCAUAGGCCAUGGAAACUAGGAGCACCAUUUCGCUGCCAGUGAAGAAAUGAACAAAGAAAAUCUGGGCCAGGCAGGCCUCAAAAGAAAUAGUCUUGCGCUCAACCGGAAAGUCUGUAAUCAUUUUAAGGGUA [A86C A114G], for which the self-cleavage was 0.24.

GUUAACGGUCAUAGGCCAUGGAAACUAGGAGCACCAUUUCGCUGCCAGUGAAGAAAUGAACAAAGAAAAUCUGGGCCAGGCAGGCCUCAAAAGAGAUAGUCUUGCGCUCAACCAGAAAGUCUGUAAUCAUUUUAAGGGUA [A86C A95G]: the self-cleavage was 1.34.

GUUAACGGUCAUAGGCCAUGGAAACUAGGAGCACCAUUUCGCUGCCAGUGAAGAAAUGAACAAAGAAAAUCUGGGCCAGGCAGGAAUCAAAAGAAAUAGCCUUGCGCUCAACCAGAAAGUCUGUAAUCAUUUUAAGGGUA [C85A U100C]: the self-cleavage is 0.72.

On to GUUAACGGUCAUAGGCCAUGGAAACUAGGAGCACCAUUUCGCUGCCAGUGAAGAAAUGAACAAAGAAAAUCUGGGCCAGGCAGGCCUCAAAAGAAAUAGUCCUGCGCUCAACCAGAAAGUCUGUAAUCAUUUUAAGGGUA [A86C U102C], for which the self-cleavage came to 1.29.

GUUAACGGUCAUAGGCCAUGGAAACUAGGAGCACCAUUUCGCUGCCAGUGAAGAAAUGAACAAAGAAAAUCUGGGCCAGGCAGGCGUCAAAAGAAAUAGUCUUGCGCUCAACCAGAAGGUCUGUAAUCAUUUUAAGGGUA [A86G A118G]: the self-cleavage worked out at 1.45.

Take GUUAACGGUCAUAGGCCAUGGAAACUAGGAGCACCAUUUCGCUGCCAGUGAAGAAAUGAACAAAGAAAAUCUGGGCCAGGCAGGCGUCAACAGAAAUAGUCUUGCGCUCAACCAGAAAGUCUGUAAUCAUUUUAAGGGUA [A86G A91C]: the self-cleavage is 0.64.

As to GUUAACGGUCAUAGGCCAUGGAAACUAGGAGCACCAUUUCGCUGCCAGUGAAGAAAUGAACAAAGAAAAUCUGGGCCAGGCAGGCGUCAGAAGAAAUAGUCUUGCGCUCAACCAGAAAGUCUGUAAUCAUUUUAAGGGUA [A86G A90G], the self-cleavage is 1.13.

On to GUUAACGGUCAUAGGCCAUGGAAACUAGGAGCACCAUUUCGCUGCCAGUGAAGAAAUGAACAAAGAAAAUCUGGGCCAGGCAGGCCUCAAAAGAAAUAGUCUUGCGCUCAACCAGAAAGUCUGUAAUCAUUUUAAGGGUA [A86C], for which the self-cleavage is 1.22.

With GUUAACGGUCAUAGGCCAUGGAAACUAGGAGCACCAUUUCGCUGCCAGUGAAGAAAUGAACAAAGAAAAUCUGGGCCAGGCAGGCGUCAAAAGAAAUAGUCUUGCGCUCAACCAGAAAGUCUGUAAUCAUUUUAAGGGUA [A86G], the self-cleavage was found to be 1.16.

On to GUUAACGGUCAUAGGCCAUGGAAACUAGGAGCACCAUUUCGCUGCCAGUGAAGAAAUGAACAAAGAAAAUCUGGGCCAGGCAGGCCUCAAAAGAAAUAGUCUUGCGCUCAACCAGAAAGUCUGUAAUCAUUCUAAGGGUA [A86C U132C], for which the self-cleavage is 0.9.

With GUUAACGGUCAUAGGCCAUGGAAACUAGGAGCACCAUUUCGCUGCCAGUGAAGAAAUGAACAAAGAAAAUCUGGGCCAGGCAGGCCUCAAAAGAAAUAGUCUUGCGCUCAACCAGAAAGUCUGUAACCAUUUUAAGGGUA [A86C U127C], the self-cleavage was 0.83.

On to GUUAACGGUCAUAGGCCAUGGAAACUAGGAGCACCAUUUCGCUGCCAGUGAAGAAAUGAACAAAGAAAAUCUGGGCCAGGCAGGCCUCAAAAGAAAUAGUCUUGCGCACAACCAGAAAGUCUGUAAUCAUUUUAAGGGUA [A86C U108A], for which the self-cleavage stood at 0.16.

Turning to GUUAACGGUCAUAGGCCAUGGAAACUAGGAGCACCAUUUCGCUGCCAGUGAAGAAAUGAACAAAGAAAAUCUGGGCCAGGCAGGUAUCAAAAGAAAUAGUCUUGCGCUCAACCAGAAAGGCUGUAAUCAUUUUAAGGGUA [C85U U120G], the self-cleavage worked out at 0.64.

Consider GUUAACGGUCAUAGGCCAUGGAAACUAGGAGCACCAUUUCGCUGCCAGUGAAGAAAUGAACAAAGAAAAUCUGGGCCAGGCAGGGUUCAAAAGAAAUAGUCUUGCGCUCAACCAGAAAGUCUGUAAUCAUUUUAAGGGUA [C85G A86U], for which the self-cleavage came out at 0.31.

With GUUAACGGUCAUAGGCCAUGGAAACUAGGAGCACCAUUUCGCUGCCAGUGAAGAAAUGAACAAAGAAAAUCUGGGCCAGGCAGGUAUCAAGAGAAAUAGUCUUGCGCUCAACCAGAAAGUCUGUAAUCAUUUUAAGGGUA [C85U A91G], the self-cleavage came out at 0.52.

For GUUAACGGUCAUAGGCCAUGGAAACUAGGAGCACCAUUUCGCUGCCAGUGAAGAAAUGAACAAAGAAAAUCUGGGCCAGGCAGGAAUCAAAAGAAAUAGUCUUGCGCUAAACCAGAAAGUCUGUAAUCAUUUUAAGGGUA [C85A C109A], the self-cleavage came to 0.19.

Consider GUUAACGGUCAUAGGCCAUGGAAACUAGGAGCACCAUUUCGCUGCCAGUGAAGAAAUGAACAAAGAAAAUCUGGGCCAGGCAGGUAUCAAAAGAAGUAGUCUUGCGCUCAACCAGAAAGUCUGUAAUCAUUUUAAGGGUA [C85U A96G], for which the self-cleavage is 1.24.

For GUUAACGGUCAUAGGCCAUGGAAACUAGGAGCACCAUUUCGCUGCCAGUGAAGAAAUGAACAAAGAAAAUCUGGGCCAGGCAGGCGUCAAAAGAAAUGGUCUUGCGCUCAACCAGAAAGUCUGUAAUCAUUUUAAGGGUA [A86G A98G], the self-cleavage was determined as 0.52.

Take GUUAACGGUCAUAGGCCAUGGAAACUAGGAGCACCAUUUCGCUGCCAGUGAAGAAAUGAACAAAGAAAAUCUGGGCCAGGCAGGCGUCAAAAGAAGUAGUCUUGCGCUCAACCAGAAAGUCUGUAAUCAUUUUAAGGGUA [A86G A96G]: the self-cleavage came to 0.71.

In the case of GUUAACGGUCAUAGGCCAUGGAAACUAGGAGCACCAUUUCGCUGCCAGUGAAGAAAUGAACAAAGAAAAUCUGGGCCAGGCAGGCGUCAAAAGAAUUAGUCUUGCGCUCAACCAGAAAGUCUGUAAUCAUUUUAAGGGUA [A86G A96U], the self-cleavage is 1.37.

The values above are taken from the RNAGym collection of RNA variant scans (doi:10.7554/elife.90254).
